The values that follow come from PMC7642358 (Nature Communications, 2020).

Residue numbers refer to the chain shown, from its start.

B1: 93 (VHH)
VHH: QVQLVESGGGSVQAGGSLRLSCAASGHIAQIEYLGWFRQAPGKEREGVAALSTNQGYTYYADSVKGRFTVSLDNAKNTVYLQMNSLKPEDTALYYCAAARWGRTYPLSYMAYTYWGQGTQVTVS
B2: 82 (VHH)
VHH: QVQLVESGGGSVQAGGSLRLSCAASGTINSIHYLGWFRQAPGKEREGVAALDTYIGYTYYADSVKGRFTVSLDNAKNTVYLQMNSLKPEDTALYYCAAARWGRTSPLHWYYYTYWGQGTQVTVS
B3: 86 (VHH)
VHH: QVQLVESGGGSVQAGGSLRLSCAASGTIASIIYLGWFRQAPGKEREGVAALNTWNGKTYYADSVKGRFTVSLDNAKNTVYLQMNSLKPEDTALYYCAAAYSGMWYPLSNEHYGYWGQGTQVTVS
B4: 79 (VHH)
VHH: QVQLVESGGGSVQAGGSLRLSCAASGYIHTIEYLGWFRQAPGKEREGVAALYTLKGQTYYADSVKGRFTVSLDNAKNTVYLQMNSLKPEDTALYYCAAARWGRDTPLHYQYYSYWGQGTQVTVS
B5: 94 (VHH)
VHH: B4 VHH with H29T, T30M, Y52N, L54H, K55T, Q57G, D104Y, T105E, Q110A
B6: 97 (VHH)
VHH: QVQLVESGGGSVQAGGSLRLSCAASGAISTIEYLGWFRQAPGREREGVAALYTERGYTYYADSVKGRFTVSLDNAKNTVYLQMNSLKPEDTALYYCAAARYGHAQAPLHYFWYGYWGQGTQVTVS
B7: 81 (VHH)
VHH: QVQLVESGGGSVQAGGSLRLSCAASGYIHRIEYLGWFRQAPGKEREGVAALSTISGNTYYADSVKGRFTVSLDNAKNTVYLQMNSLKPEDTALYYCAAARFGRAYPLHYYQYTYWGQGTQVTVS
B8: 90 (VHH)
VHH: QVQLVESGGGSVQAGGSLRLSCAASGAINQIYYLGWFRQAPGKEREGVAALSTKYGETYYADSVKGRFTVSLDNAKNTVYLQMNSLKPEDTALYYCAAARWGRQYPLTFVYYSYWGQGTQVTVS
B9: 83 (VHH)
VHH: QVQLVESGGGSVQAGGSLRLSCAASGGITHIVYLGWFRQAPGKEREGVAALMTRWGTTYYADSVKGRFTVSLDNAKNTVYLQMNSLKPEDTALYYCAAAKYGQNFPLSYHAYRYWGQGTQVTVS
B10: 88 (VHH)
VHH: QVQLVESGGGLVQAGGSLRLSCAASGFPVWAHHMLWYRQAPGKEREWVAAIASWGANTAYADSVKGRFTISRDNAKNTVYLQMNSLKPEDTAVYYCNVKDSGQYRENYDYWGQGTQVTVS
B11: 85 (VHH)
VHH: QVQLVESGGGSVQAGGSLRLSCAASGSISSITYLGWFRQAPGKEREGVAALVTSRGKTYYADSVKGRFTVSLDNAKNTVYLQMNSLKPEDTALYYCAAASWGYTWPLYTYDYWYWGQGTQVTVS
B12: 84 (VHH)
VHH: QVQLVESGGGSVQAGGSLRLSCAASGYIKHIEYLGWFRQAPGKEREGVAALKTSSGSTYYADSVKGRFTVSLDNAKNTVYLQMNSLKPEDTALYYCAAARYGRSDPLHYHEYSYWGQGTQVTVS
B13: sybody 23 (Sb23) (VHH)
VHH: QVQLVESGGGLVQAGGSLRLSCAASGFPVESENMHWYRQAPGKEREWVAAIYSTGGWTLYADSVKGRFTISRDNAKNTVYLQMNSLKPEDTAVYYCAVQVGYWYEGQGTQVTVS
notes: source: E. coli MC1061 F-, periplasmic extract, purified (Ni-NTA, desalted in PBS)
B14: sybody 12 (Sb12) (VHH)
VHH: QVQLVESGGGLVQAGGSLRLSCAASGFPVQLYWMEWYRQAPGKEREWVAAITSDGDYTEYADSVKGRFTISRDNAKNTVYLQMNSLKPEDTAVYYCYVKVGEWYYGQGTQVTVS
notes: as for B13
B15: sybody 95 (Sb95) (VHH)
VHH: QVQLVESGGGSVQAGGSLRLSCAASGNIYNIKYLGWFRQAPGKEREGVAALMTRYGETYYADSVKGRFTVSLDNAKNTVYLQMNSLKPEDTALYYCAAASYGANWPLVSAAYTYWGQGTQVTVS
notes: as for B13
B16: sybody 42 (Sb42) (VHH)
VHH: QVQLVESGGGLVQAGGSLRLSCAASGFPVYNTWMEWYRQAPGKEREWVAAITSWGFKTYYADSVKGRFTISRDNAKNTVYLQMNSLKPEDTAVYYCNVKDEGYTGYYYDYWGQGTQVTVS
notes: as for B13
B17: sybody 76 (Sb76) (VHH)
VHH: QVQLVESGGGLVQAGGSLRLSCAASSFPVDTYHMAWYRQAPGKEREWVAAIVSWGWRTYYADSVKGRFTISRDNAKNTVYLQMNSLKPEDTAVYYCNVKDIGAQEVHYDYWGQGTQVTVS
notes: as for B13
B18: sybody 100 (Sb100) (VHH)
VHH: B11 VHH with R55D, K57R, S100N, T104S, T109Q, Y110T, D111E
notes: as for B13

One data set concerns the target T1, SARS-CoV-2 spike receptor-binding domain (2019-nCoV RBD-SD1, residues 319–566) (SARS-CoV-2, UniProt P0DTC2).
Assay: not given
Settings: not given
Take B1: the binding result is “binds”.

Turning to B2, the binding result was “binds”.

For B3, the binding result was “binds”.

As to B4, the binding result is recorded as “binds”.

On to B5, for which the binding result is “binds”.

Take B6: the binding result is on record as “binds”.

For the molecule B7, the binding result is reported as “binds”.

As to B8, the binding result is on record as “binds”.

Regarding B9, the binding result is listed as “binds”.

B10: the binding result is given as “binds”.

Take B11: the binding result is listed as “binds”.

B12: the binding result is reported as “binds”.

The next data set concerns the target T1, SARS-CoV-2 spike receptor-binding …. The data set can be described thus: BLI. Conditions: both partners purified.
As for B13, binding was characterised by a dissociation constant (Kd) of 10.6 nM. This lies in the double-digit nanomolar range.

Turning to B14, the Kd (in general, the constant that tells how readily two partners part at equilibrium) came to 24.2 nM.

B15 came in with a Kd of 43.9 nM.

On to B16, for which the dissociation constant Kd came to 5 nM.

In turn, B17 showed a Kd of 58.1 nM.

In turn, B18 came in with a Kd of 38.7 nM.

A further data set shares this target. Kind of data set: thermal shift (nanoDSF). Conditions: both partners purified. On the technique in general: DSF heats the sample and reads unfolding from a dye or from intrinsic fluorescence.
Take B13: the “increase of the melting temperature of RBD” value is ~10 degrees.
